Drawing on PMC7729563, “Phospho-Mutant Activity Assays Provide Evidence for the Negative Regulation of Transcriptional Regulator PRE1 by Phosphorylation” (International Journal of Molecular Sciences, 2020), this text covers response for 2 variants.

To fix the notation:
B1: AD-PRE1 (PACLOBUTRAZOL-RESISTANT-1 fused to GAL4AD) [Arabidopsis thaliana] / BD-IBH1 (ILI1 BINDING bHLH PROTEIN1 fused to GAL4BD) [Arabidopsis thaliana] (parent complex)
chain 1: MSNRRSRQSSSAPRISDNQMIDLVSKLRQILPEIGQRRRSDKASASKVLQETCNYIRNLNREVDNLSERLSQLLESVDEDSPEAAVIRSLLM
chain 2: MASADKLINTDVPEKDVFAFHFLQSLSNLRKQNPFDTPDQKNYRVRKIKKAAYVSMARAAGGSSRLWSRALLRRADKDDNKIVRFSRRKWKISSKRRRSNQRAPVVEEAAERLRNLVPGGGGMETSKLMEETAHYIKCLSMQVKVMQCLVDGLSPK

In the first experiment the parent is B1. Briefly: pull-down, band quantification normalized to input; parent: 0.32; read off a plot.
As to chain 1 S67E, the response was about 0.13 Pull-down/Input.

For the variant chain 1 S67A, the response was about 0.23 Pull-down/Input.

The next experiment covers variants of B1. Briefly: yeast two-hybrid, quantitative β-galactosidase assay; parent: 3.9; read off a plot.
For the variant chain 1 S67E, the response was ~2.3 β-gal units.

For chain 1 S67A, the response is ~3.6 β-gal units.

In another experiment the parent is B1. Briefly: Ratiometric-Bimolecular Fluorescence Complementation (rBiFC) in tobacco; n = 50 images; parent: 0.42; read off a plot.
chain 1 S67E: the response is about 0.16 YFP/RFP.
